Molecular target: SEPT9_i1-YN (split-YFP chimera: septin 9 isoform 1 with EE tag, linker and N-terminal YFP fragment on its C-terminus) (human) (UniProt Q9UHD8)
Experiment: split reporter (BiFC, NanoBiT); split YFP (YN/YC) in live PC-3 cells, transient co-transfection with 10-fold more HIF-1α plasmid than SEPT9_i1 plasmid, confocal imaging 48 h after transfection; cells treated overnight with 250 μM CoCl2, 100 μM DBM, DBM with 1 μM 17-AAG or 150 μM FCF, or 0.01% DMSO

Sequence of UniProt Q9UHD8 (Q9UHD8 whole entry, change not shown, the tested form may be a part, canonical isoform): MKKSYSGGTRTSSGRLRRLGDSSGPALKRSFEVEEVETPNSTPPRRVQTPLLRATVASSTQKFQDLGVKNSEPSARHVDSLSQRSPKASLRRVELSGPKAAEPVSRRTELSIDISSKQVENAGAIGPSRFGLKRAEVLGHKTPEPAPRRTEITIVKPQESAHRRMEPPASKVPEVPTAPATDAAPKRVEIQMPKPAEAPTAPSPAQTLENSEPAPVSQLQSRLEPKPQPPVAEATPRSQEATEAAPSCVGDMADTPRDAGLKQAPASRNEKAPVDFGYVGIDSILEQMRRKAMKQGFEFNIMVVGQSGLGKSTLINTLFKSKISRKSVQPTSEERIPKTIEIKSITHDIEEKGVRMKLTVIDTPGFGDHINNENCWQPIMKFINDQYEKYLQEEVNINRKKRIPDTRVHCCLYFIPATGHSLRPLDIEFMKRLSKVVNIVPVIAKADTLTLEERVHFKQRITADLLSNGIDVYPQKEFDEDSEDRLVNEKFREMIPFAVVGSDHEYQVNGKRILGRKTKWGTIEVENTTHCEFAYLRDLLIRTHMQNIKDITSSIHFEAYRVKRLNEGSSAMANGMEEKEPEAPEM

A fold BiFC signal against YC-ΔHLH-HIF-1α with SEPT9 i1-YN of 11 fold was found for “YC-HIF-1α-DPM (YC chimera of double proline mutated HIF-1α) (from UniProt Q16665 1-826) (natural protein)” in this work.
